# Reference: PMC4945075
# B1: His6-tagged cyt-RodZ (cytosolic part of RodZ) (domain or fragment)
# chain: MFVVTELGIRLKEAREEKAMSLDDLQAATKIQKRYLTALEEGNYDIIPGKFYVRAFIKQYAEAVGLDADQLFEEHKKDIPNTYHDDVSEKI
# Biological target: T1, His-tagged cyt-SpoIIE (cytosolic part of SpoIIE), fluorescently labeled (B. subtilis)
# T1 sequence (P37475 whole entry, looked up): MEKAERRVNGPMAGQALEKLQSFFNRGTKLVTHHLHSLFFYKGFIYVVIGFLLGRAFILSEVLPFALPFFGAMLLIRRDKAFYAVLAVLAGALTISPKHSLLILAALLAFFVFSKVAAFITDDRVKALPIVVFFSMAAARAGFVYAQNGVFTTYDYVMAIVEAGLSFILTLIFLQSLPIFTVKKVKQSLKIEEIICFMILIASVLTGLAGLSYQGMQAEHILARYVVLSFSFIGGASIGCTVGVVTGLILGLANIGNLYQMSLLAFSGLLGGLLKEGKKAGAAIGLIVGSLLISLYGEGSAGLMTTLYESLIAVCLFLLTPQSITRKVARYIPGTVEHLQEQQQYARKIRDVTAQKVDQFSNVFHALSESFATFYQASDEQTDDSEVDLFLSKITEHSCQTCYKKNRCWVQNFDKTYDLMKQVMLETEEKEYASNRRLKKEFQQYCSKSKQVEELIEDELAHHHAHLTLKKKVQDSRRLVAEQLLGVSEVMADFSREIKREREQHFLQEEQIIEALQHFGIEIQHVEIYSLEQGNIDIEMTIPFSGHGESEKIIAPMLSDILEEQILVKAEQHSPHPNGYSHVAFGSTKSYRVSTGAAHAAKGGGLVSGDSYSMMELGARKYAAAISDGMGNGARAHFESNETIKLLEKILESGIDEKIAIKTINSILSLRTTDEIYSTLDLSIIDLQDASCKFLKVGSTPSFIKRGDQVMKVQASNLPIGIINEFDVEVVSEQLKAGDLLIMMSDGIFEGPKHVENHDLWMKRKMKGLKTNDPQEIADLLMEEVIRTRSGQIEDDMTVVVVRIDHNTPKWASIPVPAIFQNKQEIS
# Test: MST; labeled cyt-SpoIIE constant at 34 μM, unlabeled cyt-RodZ titrated 6.7 nM to 221 μM; 25 mM Tris-HCl pH 8.0, 150 mM NaCl, 40 mM imidazole, 5% glycerol, 0.05% Tween-20; Monolith NT.115; 'preliminary Kd'
binder,measurement,value
B1,Kd,10 µM
